From the RNAGym collection of RNA variant scans (doi:10.7554/elife.80360)

B1: HDV Ribozyme (parent)
chain: GGCCGGCAUGGUCCCAGCCUCCUCGCUGGCGCCGGCUGGGCAACAUUCCGAGGGGACCGUCCCCUCGGUAAUGGCGAAUGGGACCCA

Variants of: B1
Assay: self-cleavage, relative activity (ratio to wild type); higher = more cleavage; co-transcriptional

Row | Variant | self-cleavage
1 | GGGCGGCAUGGUCCCCGCCUCCUCGCUGGCGCCGGCUGGGCAACAUUCCGAGGGGACCGUCCCCUCGGUAAUGGCGAAUGGGACCCA | 0.208
2 | GGCCGGCAUGGUCCCAGCCUCCUCGCUGGCGCCGGCUGGGCAACAUUCCGAGGGGACAGUCGCCUCGGUAAUGGCGAAUGGGACCCA | 1.19
3 | GGCCGGCAUGGUCCCAGCCUCCUCGCUGGCGCCGGCUGGGCAACAUUCCGAGGGGACCGCCCCCUCGGUAAUGGCGAAUGGGACCUA | 0.88
4 | GGCCGGCAUGGUCCCAGCCUCCUCGCUGGCGCCGGCUGGGCACCAUUCCGAGGGGACCGUCCCCUCGGUAAUGGCGAAUGGGUCCCA | 0.161
5 | GGCCGGCAUGGUCCCAGCCUCCUCGCUGGCGCCGGCUGGCCAACAUUCCGAGGGGACCGUCCCCUCGGCAAUGGCGAAUGGGACCCA | 0.158
6 | GGCCGGCAUGGUCCCAGCCUCCUCGCUGGCGCCGGCUGGGCAACAUUCCGUGGGGACCGUCCCAUCGGUAAUGGCGAAUGGGACCCA | 0.845
7 | GGCCGGCAUGGUCCCAGCCUCAUCGCUGGCGCCGGCUGGGCAACAUUCCGAGGGGACCGUCCCCUCGGUAAUUGCGAAUGGGACCCA | 0.0573
8 | GGCCGGCAUGGUCCCAGCCUCCUCGCUGGCGCCGGCUGGGCAACAUUCCGAGGAGACCGUCCCUUCGGUAAUGGCGAAUGGGACCCA | 0.696
9 | GGCCGGCAUGGACCCAGCCUCCUCGCUGGCGCCGGCUGGGCAACAUUCCGAGGGGACCGACCCCUCGGUAAUGGCGAAUGGGACCCA | 0.453
10 | GGCAGGCAUGGUCCCAGCCUCCUCGCUAGCGCCGGCUGGGCAACAUUCCGAGGGGACCGUCCCCUCGGUAAUGGCGAAUGGGACCCA | 0.0489
11 | GGCCGGCAUGGUCCCAGCCUCCUCGCUGACGCCGGCUGGGCAACGUUCCGAGGGGACCGUCCCCUCGGUAAUGGCGAAUGGGACCCA | 0.142
12 | GGCCGGCAUGGUCCCAGCCUCAUCGCUGGCGCCGGCUGGGCAACAUUCCGAGGCGACCGUCCCCUCGGUAAUGGCGAAUGGGACCCA | 0.281
13 | GGCCGGCAUGGUCCCAGCCUCCUCGCUGGCGCCGGUUGGGCAACAUUCCGACGGGACCGUCCCCUCGGUAAUGGCGAAUGGGACCCA | 0.779
14 | GGCCGGCAUGGUCCCAGCCUCCUUGCUGGCGCCGGCUGGGCAACAUUCCGAGGGGACCGUCCCCUCGGUAAUGGCGAAGGGGACCCA | 0.244
15 | GGCCGGCAUGGUCCCAGCCUCCUCGCUGGCGCCGGCUGGGCAUCAUUCCGAGGGGACCGGCCCCUCGGUAAUGGCGAAUGGGACCCA | 0.394
16 | GGCCGGCUUGGUCCCAGCCUCCUCGCUGGCGCCGGCUGGGCAACAUUCCUAGGGGACCGUCCCCUCGGUAAUGGCGAAUGGGACCCA | 0.848

Row | Variant | self-cleavage
17 | GGCCGGCAUGGUCCCAGCCUCCUCGCUGGCGCCGGCUGGGCAACAUUCCGAGGGGAUCCUCCCCUCGGUAAUGGCGAAUGGGACCCA | 0.89
18 | GGCCGGCAUGGUCCCAGCCUCCUCGCUGGCGCCGGCUGGGCAACAUUCCGAUGGGACCGUCCCCUCGGUAAUGGAGAAUGGGACCCA | 0.148
19 | GGCCGGCAUGGUUCCAGCCUCCUCGCUGGCGCCGGCUGGGCAACAUUCUGAGGGGACCGUCCCCUCGGUAAUGGCGAAUGGGACCCA | 0.256
20 | GGCCGGCAUGGUCCCAGCCUCCUCGCUGGCGCCGGCUGGGCAACAUUCUGAGGGGACCGUCCCCUCGGUACUGGCGAAUGGGACCCA | 0.641
21 | GGCCGGCAUGGUCCCAGCUUCCUCGCUGGCGCCGGCUGUGCAACAUUCCGAGGGGACCGUCCCCUCGGUAAUGGCGAAUGGGACCCA | 0.0449
22 | GGCCGGCAUGGUCCCAGCCUCCUCGCUGGCGCCGGAUGGGCAACAUUCCGAGGGGACCGUCCCCUCGGUAAUGGCGAAUGGGACCGA | 0.325
23 | AGCCGGCAUGGUCCCAGCCUCCUCGCUGGCUCCGGCUGGGCAACAUUCCGAGGGGACCGUCCCCUCGGUAAUGGCGAAUGGGACCCA | 0
24 | GGCCGGCAUGGUCCCAGCCUCCUCGCUGGCGCCGGCUGGGCAACAUUCCGAGGGGACCGUCCCCUCGAUAAUGGCGAACGGGACCCA | 0.233
25 | GGCCAGCAUGGUCCCAGCCUCCUCGCUGGCGGCGGCUGGGCAACAUUCCGAGGGGACCGUCCCCUCGGUAAUGGCGAAUGGGACCCA | 0.248
26 | GGCCGGCAUGGUCCCAGCCUCCUCGCUGGCGCCGGCUGGGCAUCAUUCUGAGGGGACCGUCCCCUCGGUAAUGGCGAAUGGGACCCA | 0.554
27 | GGCCGGCAUGGUCCCAGCCUCCUCGCUGGCGCCGGCUGGGCAACAUUCCGACGGGACCGUCCCCUCGGUAAUUGCGAAUGGGACCCA | 0.415
28 | GGCCGGCAUGGUCCCAGCCUCCUCGCUGGCGCCGGCUGGGCAACAUUCCGAGGGGACCGUCCCCCCGGUAAUGGCCAAUGGGACCCA | 1.09
29 | GGCCGGCAUGGUGCCAGCCUCCUCGCUGGCGCCGGCUGGGCAACAUUCCGAGGGGACCGUCCCCUCGGUAAUGGCGAAUGGGACCCG | 0.0903
30 | GGCCGGCAUGGUCCCAGCCUCCUCGCUGGCGCCGGCGGGGCAACAUUCCGUGGGGACCGUCCCCUCGGUAAUGGCGAAUGGGACCCA | 0
31 | GGCCGGCAUGGUCCCAGCCUCCUCGCUUGCGCCGGCUGGGCAACAUUCCGAGGGGACCGUCCCCUCGGAAAUGGCGAAUGGGACCCA | 0.162
32 | GGCCGGCUUGGUCCCAGCCUCCUCGCUGGCGCCGGCUGGGCAACAUUCCGAUGGGACCGUCCCCUCGGUAAUGGCGAAUGGGACCCA | 0.872
